Reference: paper PMC7060258

How the values were obtained:
[1] = target: recombinant HCIQ2c1 Kunitz-type peptide from Heteractis crispa (Heteractis crispa); experiment: SPR; Biacore 3000; peptides covalently immobilised on a CM4 chip (970 RU rHCIQ2c1, 460 RU rHCIQ4c7); proteinases 1 nM to 5 μM flowed over; 25 °C; HBS: 0.15 M NaCl, 0.01 M HEPES, pH 7.4
[2] = target: recombinant HCIQ2c1 Kunitz-type peptide from Heteractis crispa (Heteractis crispa); experiment: SPR; rHCIQ2c1 immobilised on a CM4 chip; temperature range of 10–40 °С at an interval of 5 °С; enthalpy from the temperature dependence of ΔG (Van't Hoff diagram)

Chain of recombinant HCIQ2c1 Kunitz-type peptide from Heteractis crispa (Heteractis crispa) (A0A6B7FBD3 28-85): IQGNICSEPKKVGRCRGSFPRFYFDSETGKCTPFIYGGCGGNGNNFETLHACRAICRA

Row | Substance | Ka [1] | Kd [1] | koff [1] | kon [1] | dH [2]
1 | cathepsin G (from UniProt P08311 21-244) (enzyme) | 3.58e+09 M⁻¹ | 0.000279 µM | 0.000359 s⁻¹ | 1.29e+06 M⁻¹ s⁻¹ | 
2 | α-chymotrypsin (enzyme) | 1.03e+07 M⁻¹ | 0.0974 µM | 0.00749 s⁻¹ | 76900 M⁻¹ s⁻¹ | 19.6 kJ/mol
